Experimental data reported in the Immune Epitope Database (IEDB).

Key:
HLA-B*08:01 = assay: IEDB peptide-MHC binding, purified MHC/direct/fluorescence; filed as Kd, often an IC50 or EC50 that approximates it; ≥ and ≤ were set here for values at or beyond the usual limits of such assays
HLA-B*08:02 = assay: as above
HLA-A*02:01 [1] = assay: IEDB peptide-MHC binding, purified MHC/competitive/fluorescence; filed as Kd, often an IC50 or EC50 that approximates it; ≥ and ≤ were set here for values at or beyond the usual limits of such assays
HLA-A*02:12 = assay: IEDB peptide-MHC binding, purified MHC/direct/fluorescence; filed as Kd, often an IC50 or EC50 that approximates it; ≥ and ≤ were set here for values at or beyond the usual limits of such assays
HLA-A*02:03 = assay: as above
HLA-A*02:16 = assay: as above
HLA-A*68:02 = assay: as above
HLA-A*24:03 = assay: as above
HLA-A*03:01 [2] = assay: as above
HLA-A*02:19 = assay: as above
HLA-A*02:11 = assay: as above
HLA-B*46:01 [3] = assay: IEDB peptide-MHC binding, purified MHC/competitive/fluorescence; filed as Kd, often an IC50 or EC50 that approximates it; ≥ and ≤ were set here for values at or beyond the usual limits of such assays; conditions: source organism: Zaire ebolavirus
HLA-B*51:01 [4] = assay: as above; conditions: source organism: Zaire ebolavirus
HLA-B*15:01 [5] = assay: as above; conditions: source organism: Zaire ebolavirus
HLA-A*26:01 = assay: as above; conditions: source organism: Zaire ebolavirus
HLA-B*57:01 = assay: as above; conditions: source organism: Zaire ebolavirus
HLA-B*18:01 [6] = assay: as above; conditions: source organism: Zaire ebolavirus
HLA-B*39:01 = assay: as above; conditions: source organism: Zaire ebolavirus
HLA-B*15:17 = assay: as above; conditions: source organism: Zaire ebolavirus
HLA-B*27:03 = assay: as above; conditions: source organism: Zaire ebolavirus
HLA-A*69:01 [7] = assay: as above; conditions: source organism: Zaire ebolavirus
HLA-A*29:02 = assay: IEDB peptide-MHC binding, purified MHC/direct/fluorescence; filed as Kd, often an IC50 or EC50 that approximates it; ≥ and ≤ were set here for values at or beyond the usual limits of such assays
HLA-A*02:01 [8] = assay: as above; conditions: source organism: West Nile virus
HLA-B*46:01 [9] = assay: as above; conditions: source organism: West Nile virus
HLA-B*51:01 [10] = assay: as above; conditions: source organism: West Nile virus
HLA-B*15:01 [11] = assay: as above; conditions: source organism: West Nile virus
HLA-B*18:01 [12] = assay: as above; conditions: source organism: West Nile virus
HLA-B*58:01 = assay: as above; conditions: source organism: West Nile virus
HLA-B*44:02 = assay: as above; conditions: source organism: West Nile virus
HLA-A*31:01 = assay: as above; conditions: source organism: West Nile virus
HLA-A*01:01 = assay: as above; conditions: source organism: West Nile virus
HLA-B*40:01 = assay: as above; conditions: source organism: West Nile virus
HLA-B*27:05 = assay: as above; conditions: source organism: West Nile virus
HLA-A*11:01 [13] = assay: as above; conditions: source organism: West Nile virus
HLA-A*69:01 [14] = assay: as above; conditions: source organism: West Nile virus
HLA-B*07:02 = assay: IEDB peptide-MHC binding, purified MHC/competitive/fluorescence; ≥ and ≤ were set here for values at or beyond the usual limits of such assays
HLA-A*02:01 [15] = assay: as above
HLA-B*15:01 [16] = assay: as above
HLA-A*24:02 = assay: as above
HLA-A*23:01 = assay: IEDB peptide-MHC binding, purified MHC/direct/fluorescence; filed as Kd, often an IC50 or EC50 that approximates it; ≥ and ≤ were set here for values at or beyond the usual limits of such assays; conditions: source organism: Entamoeba histolytica HM-1:IMSS
HLA-A*03:01 [17] = assay: IEDB peptide-MHC binding, purified MHC/competitive/fluorescence; ≥ and ≤ were set here for values at or beyond the usual limits of such assays; conditions: source organism: Vaccinia virus Copenhagen
HLA-A*11:01 [18] = assay: as above; conditions: source organism: Vaccinia virus Copenhagen
[19] = source organism: Giardia lamblia ATCC 50803
[20] = source organism: Zaire ebolavirus
[21] = source organism: Ebola virus Yambio0403
[22] = source organism: West Nile virus
[23] = source organism: Sudan ebolavirus
[24] = source organism: Vaccinia virus Copenhagen

For ELRKRNEAL, the Kd (HLA-B*08:01; [19]) was 0.042 µM, the Kd (HLA-B*08:02; [19]) was 2.82 µM and the Kd (HLA-A*02:01 [1]; [19]) was no less than 20 µM.

NYNGLLSSI showed a Kd (HLA-A*02:12; [20]) of no less than 20 µM, a Kd (HLA-A*02:03; [20]) of no less than 20 µM and a Kd (HLA-A*02:16; [20]) of no less than 20 µM. For the same sequence, the Kd (HLA-A*68:02; [20]) was no less than 20 µM, the Kd (HLA-A*24:03; source organism: Ebola virus - Gabon (1994-1997)) was 0.0003 µM and the Kd (HLA-A*03:01 [2]; [20]) was no less than 20 µM. The Kd (HLA-A*02:19; [20]) was no less than 20 µM, the Kd (HLA-A*02:11; [20]) was no less than 20 µM and the Kd (HLA-A*02:01 [1]; [20]) was no less than 20 µM. For the same sequence, the Kd (HLA-B*46:01 [3]) was no less than 20 µM, the Kd (HLA-B*51:01 [4]) was no less than 20 µM and the Kd (HLA-B*15:01 [5]) was no less than 20 µM. For the same sequence, the Kd (HLA-A*26:01) was no less than 20 µM, the Kd (HLA-B*57:01) was no less than 20 µM and the Kd (HLA-B*18:01 [6]) was no less than 20 µM. For the same sequence, the Kd (HLA-B*39:01) was no less than 20 µM, the Kd (HLA-B*15:17) was no less than 20 µM and the Kd (HLA-B*27:03) was no less than 20 µM. It also gave a Kd (HLA-A*69:01 [7]) of no less than 20 µM.

Sequence RYEFTAPFI has a Kd (HLA-A*29:02; [21]) of no less than 20 µM, a Kd (HLA-A*02:12; [21]) of no less than 20 µM and a Kd (HLA-A*02:03; [21]) of no less than 20 µM. The Kd (HLA-A*02:16; [21]) was no less than 20 µM, the Kd (HLA-A*68:02; [21]) was no less than 20 µM and the Kd (HLA-A*24:03; [20]) was 0.0002 µM. The Kd (HLA-A*03:01 [2]; [21]) was no less than 20 µM, the Kd (HLA-A*02:19; [21]) was no less than 20 µM and the Kd (HLA-A*02:11; [21]) was no less than 20 µM. The Kd (HLA-A*02:01 [1]; [20]) was no less than 20 µM, the Kd (HLA-B*46:01 [3]) was no less than 20 µM and the Kd (HLA-B*51:01 [4]) was no less than 20 µM. It also gave a Kd (HLA-B*15:01 [5]) of no less than 20 µM, a Kd (HLA-A*26:01) of no less than 20 µM and a Kd (HLA-B*57:01) of no less than 20 µM. For the same sequence, the Kd (HLA-B*18:01 [6]) was no less than 20 µM, the Kd (HLA-B*39:01) was no less than 20 µM and the Kd (HLA-B*15:17) was no less than 20 µM. For the same sequence, the Kd (HLA-B*27:03) was no less than 20 µM and the Kd (HLA-A*69:01 [7]) was no less than 20 µM.

HSRRSRRSL was tested, and the Kd (HLA-A*02:01 [8]) was no less than 20 µM, the Kd (HLA-B*46:01 [9]) was no less than 20 µM and the Kd (HLA-B*51:01 [10]) was no less than 20 µM. It also gave a Kd (HLA-B*15:01 [11]) of no less than 20 µM, a Kd (HLA-A*29:02; [22]) of no less than 20 µM and a Kd (HLA-B*08:01; [22]) of 0.211 µM. The Kd (HLA-B*18:01 [12]) was no less than 20 µM, the Kd (HLA-B*58:01) was no less than 20 µM and the Kd (HLA-B*44:02) was no less than 20 µM. For the same sequence, the Kd (HLA-A*31:01) was no less than 20 µM, the Kd (HLA-A*01:01) was no less than 20 µM and the Kd (HLA-B*08:02; source organism: West Nile virus strain PTRoxo) was 5.67 µM. For the same sequence, the Kd (HLA-B*40:01) was no less than 20 µM, the Kd (HLA-B*27:05) was no less than 20 µM and the Kd (HLA-A*03:01 [2]; [22]) was no less than 20 µM. The Kd (HLA-A*11:01 [13]) was no less than 20 µM and the Kd (HLA-A*69:01 [14]) was no less than 20 µM.

KPGPDNSTH showed an IC50 (HLA-B*07:02; [20]) of no less than 191 µM.

With QLKSVGLNL the IC50 (HLA-A*02:01 [15]; [23]) was 7.56 µM, the IC50 (HLA-B*07:02; [23]) was 6.4 µM and the IC50 (HLA-B*15:01 [16]; [23]) was 14.4 µM. It also gave an IC50 (HLA-A*24:02; [23]) of 24.5 µM.

For TPTVAPPAP, the IC50 (HLA-B*07:02; [20]) was no less than 145 µM.

In the case of LPKTSGHYD, the IC50 (HLA-B*07:02; [20]) is reported as no less than 182 µM.

In the case of IPYFGPAAE, the IC50 (HLA-B*07:02; [20]) is reported as no less than 135 µM.

Work on QYIHLLCNK yielded a Kd (HLA-A*24:03; source organism: Entamoeba histolytica HM-1:IMSS) of 1.11 µM and a Kd (HLA-A*23:01) of 0.2 µM.

QFLSFASLF was tested, and the Kd (HLA-A*02:12; [20]) was no less than 20 µM, the Kd (HLA-A*02:03; [20]) was no less than 20 µM and the Kd (HLA-A*02:16; [20]) was no less than 20 µM. It also gave a Kd (HLA-A*68:02; [20]) of no less than 20 µM, a Kd (HLA-A*24:03; source organism: Reston ebolavirus) of 0.0027 µM and a Kd (HLA-A*03:01 [2]; [20]) of no less than 20 µM. It also gave a Kd (HLA-A*02:19; [20]) of no less than 20 µM, a Kd (HLA-A*02:11; [20]) of no less than 20 µM and a Kd (HLA-A*02:01 [1]; [20]) of no less than 20 µM. The Kd (HLA-B*46:01 [3]) was no less than 20 µM, the Kd (HLA-B*51:01 [4]) was no less than 20 µM and the Kd (HLA-A*26:01) was no less than 20 µM. For the same sequence, the Kd (HLA-B*57:01) was no less than 20 µM, the Kd (HLA-B*18:01 [6]) was no less than 20 µM and the Kd (HLA-B*39:01) was no less than 20 µM. It also gave a Kd (HLA-B*15:17) of no less than 20 µM, a Kd (HLA-B*27:03) of no less than 20 µM and a Kd (HLA-A*69:01 [7]) of no less than 20 µM. It also gave an IC50 (HLA-A*02:01 [15]; [20]) of no less than 88.1 µM, an IC50 (HLA-B*15:01 [16]; [20]) of 9.93 µM and an IC50 (HLA-A*24:02; [20]) of 0.0128 µM.

For KITFALKKL, the IC50 (HLA-B*07:02; [24]) was 61.2 µM, the IC50 (HLA-A*24:02; [24]) was 34.8 µM and the IC50 (HLA-A*03:01 [17]) was 11.3 µM. It also gave an IC50 (HLA-A*11:01 [18]) of 19.3 µM.

Sequence AAPDGIRGF has an IC50 (HLA-B*07:02; [20]) of 12.2 µM and an IC50 (HLA-A*24:02; [20]) of 69.8 µM.

For MLKRRGFHL, the Kd (HLA-B*08:02; source organism: Salmonella enterica subsp. enterica serovar Typhi str. CT18) was 0.102 µM.

In the case of GPRGALSLL, the IC50 (HLA-B*07:02; source organism: Homo sapiens) is reported as 0.166 µM.
